In publication PMC10981947:
One block for each molecule: values may come before it.

Tests used:
[1] = molecular target: LeuT-AA, dimer interface mutant of LeuT (F488A and Y489A), C-terminally GFP-tagged
[2] = molecular target: TrkA^ECD+TM, truncation mutant of TrkA containing the extracellular and transmembrane domains, C-terminally GFP-tagged
[3] = molecular target: TrkA^ECD+TM, truncation mutant of TrkA containing the extracellular and transmembrane domains, C-terminally GFP-tagged; remark: listed apart in the source
[4] = molecular target: TrkA^TM, truncation mutant of TrkA containing only the transmembrane domain, C-terminally GFP-tagged
[5] = molecular target: sugar transporter SemiSWEET, C-terminally GFP-tagged
[6] = molecular target: T1, potassium ion channel KcsA, C-terminally GFP-tagged, P0A334; details: remark: other sources report otherwise
T1 chain: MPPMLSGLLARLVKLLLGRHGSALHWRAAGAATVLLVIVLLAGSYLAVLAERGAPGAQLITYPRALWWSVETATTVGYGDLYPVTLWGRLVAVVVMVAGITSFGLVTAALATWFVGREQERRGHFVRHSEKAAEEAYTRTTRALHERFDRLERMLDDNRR

percent dimer (NGF-treated, fraction 1) [2]: 47%
percent higher-order oligomers (NGF-treated, fraction 1) [2]: 30%
percent monomer (NGF-treated, fraction 1) [2]: 22%
percent dimer (no NGF) [3]: 40%
percent higher-order oligomers (no NGF) [3]: 5%
percent monomer (no NGF) [3]: 55%
Molecule: TrkA^ECD+TM, truncation mutant of TrkA containing the extracellular and transmembrane domains, C-terminally GFP-tagged (domain or fragment)

percent dimer (no NGF) [4]: 35%
percent higher-order oligomers (no NGF) [4]: 2%
percent monomer (no NGF) [4]: 60%
Molecule: TrkA^TM, truncation mutant of TrkA containing only the transmembrane domain, C-terminally GFP-tagged (domain or fragment)

stoichiometry N [6]: 4
B1: potassium ion channel KcsA, C-terminally GFP-tagged, P0A334 1-160 (natural protein)
chain: T1 chain

The remaining lines, values behind:

Molecule: LeuT-AA, dimer interface mutant of LeuT (F488A and Y489A), C-terminally GFP-tagged (natural protein)
percent dimer [1]: 36%
percent monomer [1]: 53%

Molecule: sugar transporter SemiSWEET, C-terminally GFP-tagged (natural protein)
stoichiometry N [5]: 2
